Measurements taken from patent US20230052256A1.

Tests used:
[1] = target: recombinant human FGFR1b-Fc (R&D Systems) (human) (UniProt P11362); test: SPR (Biacore T200), hFGFR1b-Fc amine-coupled to a CM5 chip, antibody injected at 0-200 nM
[2] = target: recombinant human FGFR1b-Fc (R&D Systems) (human) (UniProt P11362); test: SPR (Biacore T200), hFGFR1b-Fc amine-coupled to CM5 chip, antibody injected
[3] = target: human FGFR2b (beta)-Fc, human Fc fusion (human); test: SPR (Biacore T200), hFGFR2b-Fc amine-coupled to a CM5 chip, antibody injected at 0-200 nM

Chain of recombinant human FGFR1b-Fc (R&D Systems) (human) (P11362 other isoform, or with tags, fused parts or gaps limits assumed): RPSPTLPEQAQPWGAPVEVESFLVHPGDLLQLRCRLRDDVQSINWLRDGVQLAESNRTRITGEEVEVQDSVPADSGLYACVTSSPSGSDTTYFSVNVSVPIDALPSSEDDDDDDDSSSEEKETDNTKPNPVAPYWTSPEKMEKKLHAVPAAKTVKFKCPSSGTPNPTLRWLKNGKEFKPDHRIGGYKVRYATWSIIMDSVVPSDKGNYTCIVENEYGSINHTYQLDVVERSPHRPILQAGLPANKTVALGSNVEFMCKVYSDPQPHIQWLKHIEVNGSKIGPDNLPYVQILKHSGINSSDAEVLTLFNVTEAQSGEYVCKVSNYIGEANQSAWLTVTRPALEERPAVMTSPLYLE

B1: FPA144 (clinical stage anti-human FGFR2b specific antibody) (antibody, INN chains, looked up, V domains shown)
VH: QVQLVQSGAEVKKPGSSVKVSCKASGYIFTTYNVHWVRQAPGQGLEWIGSIYPDNGDTSYNQNFKGRATITADKSTSTAYMELSSLRSEDTAVYYCARGDFAYWGQGTLVTVSS
VL: DIQMTQSPSSLSASVGDRVTITCKASQGVSNDVAWYQQKPGKAPKLLIYSASYRYTGVPSRFSGSGSGTDFTFTISSLQPEDIATYYCQQHSTTPYTFGQGTKLEIK
**Q.** How did the koff [1] turn out when B1 was run?
**A.** 0.00746 s⁻¹

**Q.** What about the kon [1] of the same binder?
**A.** 33200 M⁻¹ s⁻¹

**Q.** And the Kd [2]?
**A.** 225 nM

**Q.** And the Kd [3]?
**A.** 0.75 nM

**Q.** What about the koff [3] of the same binder?
**A.** 7.77e-05 s⁻¹

**Q.** What about the kon [3] of the same binder?
**A.** 104000 M⁻¹ s⁻¹
